Experimental data published in article PMC4150762, “The DEAD-box helicase Ded1 from yeast is an mRNP cap-associated protein that shuttles between the cytoplasm and nucleus” (Nucleic Acids Research, 2014).
Where two headings read alike, the source gives them in different places.

T1: eIF4G9 (S. cerevisiae, UniProt P39935 160-492)
T1 construct: also called eIF4G9 fragment (160–492); shorten version of eIF4G1; source: E. coli (pGEX-1λT), purified
T1 sequence (looked up): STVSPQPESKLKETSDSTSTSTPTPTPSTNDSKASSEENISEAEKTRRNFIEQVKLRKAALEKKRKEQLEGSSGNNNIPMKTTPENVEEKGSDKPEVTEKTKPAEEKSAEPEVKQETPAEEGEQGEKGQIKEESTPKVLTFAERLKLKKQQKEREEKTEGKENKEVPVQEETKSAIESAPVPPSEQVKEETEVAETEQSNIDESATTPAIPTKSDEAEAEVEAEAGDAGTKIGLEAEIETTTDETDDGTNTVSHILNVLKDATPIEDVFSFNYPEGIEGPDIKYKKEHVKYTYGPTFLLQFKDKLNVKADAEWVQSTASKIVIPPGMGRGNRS


How the values were obtained:
[1] = target: T2, Ded1-His6 (S. cerevisiae, UniProt P06634 1-604); experiment: pull-down; purified GST-eIF4G1 fragments bound to glutathione Sepharose beads, incubated with Ded1, eluted with 10 mM reduced glutathione; Coomassie-stained SDS PAGE, verified by western blot for Ded1; same results with or without RNase I or AMP-PNP; details: both partners purified
T2 construct: Ded1 of S. cerevisiae, recombinant, expressed from pET22b; Printed name Ded1-His6; source: E. coli (pET22b), purified on nickel-agarose

[2] = target: T2, Ded1-His6; experiment: cell-based or functional assay
[3] = target: T2, Ded1-His6
[4] = target: T1, eIF4G9; experiment: pull-down; 7-methyl-GTP Sepharose beads loaded with 5 μg purified eIF4E or Cbp20, 5 μg of the purified proteins added with 50 U RNase I, 90 min on ice, TpB buffer (20 mM HEPES pH 7.9, 100 mM KCl, 2 mM MgCl2, 2 mM DTT), eluted with 1 mM 7-methyl-GTP; Coomassie-stained SDS PAGE; details: both partners purified

T2 sequence (P06634 whole entry, the tested form may be a part): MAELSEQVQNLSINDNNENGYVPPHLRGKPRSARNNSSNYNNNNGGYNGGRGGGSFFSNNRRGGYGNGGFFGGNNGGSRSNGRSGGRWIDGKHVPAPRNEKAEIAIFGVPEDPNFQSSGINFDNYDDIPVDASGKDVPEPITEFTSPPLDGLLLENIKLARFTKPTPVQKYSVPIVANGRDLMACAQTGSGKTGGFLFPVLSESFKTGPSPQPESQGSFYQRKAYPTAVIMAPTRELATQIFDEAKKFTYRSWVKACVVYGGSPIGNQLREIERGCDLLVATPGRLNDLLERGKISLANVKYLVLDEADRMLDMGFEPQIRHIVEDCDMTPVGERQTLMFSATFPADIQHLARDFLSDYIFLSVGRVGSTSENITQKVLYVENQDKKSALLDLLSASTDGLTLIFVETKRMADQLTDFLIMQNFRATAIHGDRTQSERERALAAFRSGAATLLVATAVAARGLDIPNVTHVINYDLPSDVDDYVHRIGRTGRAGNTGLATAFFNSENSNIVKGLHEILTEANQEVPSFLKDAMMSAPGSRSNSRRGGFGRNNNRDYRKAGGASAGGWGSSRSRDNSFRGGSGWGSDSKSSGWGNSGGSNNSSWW

| RNA-dependent ATPase activity, % Ded1 [2] | Binder | other results |
| --- | --- | --- |
| – | GST-eIF4G1 fragment 882-952 (domain or fragment, S. cerevisiae, UniProt P39935 882-952, looked up, eIF4G1 of S. cerevisiae, residues 882-952; also called 882–952 fragment; source: E. coli (pGEX-2T), purified on glutathione Sepharose; not shown: GST, N-terminal, kept) RSNSRRTNNSSNRHSFRRDAPPASKDSFITTRTYSQRNSQRAPPPKEEPAAPTSTATNMFSALMGESDDEE | binding result [1]: binds |
| 141% | GST-eIF4G1 fragment 542-952 (domain or fragment, S. cerevisiae, UniProt P39935 542-952, looked up) SYTSRRDRERGSYRNEEKREDDKPKEEVAPLVPSANRWVPKFKSKKTEKKLAPDGKTELLDKDEVERKMKSLLNKLTLEMFDAISSEILAIANISVWETNGETLKAVIEQIFLKACDEPHWSSMYAQLCGKVVKELNPDITDETNEGKTGPKLVLHYLVARCHAEFDKGWTDKLPTNEDGTPLEPEMMSEEYYAAASAKRRGLGLVRFIGFLYRLNLLTGKMMFECFRRLMKDLTDSPSEETLESVVELLNTVGEQFETDSFRTGQATLEGSQLLDSLFGILDNIIQTAKISSRIKFKLIDIKELRHDKNWNSDKKDNGPKTIQQIHEEEERQRQLKNNSRSNSRRTNNSSNRHSFRRDAPPASKDSFITTRTYSQRNSQRAPPPKEEPAAPTSTATNMFSALMGESDDEE | – |
| – | 1–387-GST fragment of eIF4G1 (domain or fragment, S. cerevisiae, UniProt P39935 1-387, looked up, not among the constructs of the methods) MTDETAHPTQSASKQESAALKQTGDDQQESQQQRGYTNYNNGSNYTQKKPYNSNRPHQQRGGKFGPNRYNNRGNYNGGGSFRGGHMGANSSNVPWTGYYNNYPVYYQPQQMAAAGSAPANPIPVEEKSPVPTKIEITTKSGEHLDLKEQHKAKLQSQERSTVSPQPESKLKETSDSTSTSTPTPTPSTNDSKASSEENISEAEKTRRNFIEQVKLRKAALEKKRKEQLEGSSGNNNIPMKTTPENVEEKGSDKPEVTEKTKPAEEKSAEPEVKQETPAEEGEQGEKGQIKEESTPKVLTFAERLKLKKQQKEREEKTEGKENKEVPVQEETKSAIESAPVPPSEQVKEETEVAETEQSNIDESATTPAIPTKSDEAEAEVEAEAGDA | binding result [1]: binds |
| 191% | Gle1 (recombinant) (natural protein, S. cerevisiae, UniProt Q12315 1-538, looked up) MRFVFDEVFNSDTDSPEFEETCSTTSSTSSQCPTPEPSPAIKLPSFTKVGTKKLVNESVVILDPALENALRDLNLQSKLIPINEPIVAASSIIVPHSTNMPLPRASHSSLLDNAKNSNATAPLLEAIEESFQRKMQNLVLANQKEIQSIRENKRRVEEQRKRKEEEERKRKEAEEKAKREQELLRQKKDEEERKRKEAEAKLAQQKQEEERKKIEEQNEKERQLKKEHEAKLLQQKDKLGKAVTNFDKISKMFWHYKDKIAQIKQDIVLPIKKADVNVRNLLSRHKRKINPKFGQLTNSNQQLFKIQNELTQLINDTKGDSLAYHWILNFIAKAVVHQAETEVRVKPESALPLGKLTLYLLVQFPELQELFMARLVKKCPFVIGFTCEIDTEKGRQNMGWKRNNENKWEDNTSYDERMGGILSLFAIITRLQLPQEFITTTSHPFPIALSWHILARICNTPLNLITNTHFVILGSWWDAAAVQFLQAYGNQASKLLILIGEELTSRMAEKKYVGAARLRILLEAWQNNNMESFPEMSP | – |
| – | Cbp80 (1–556) (domain or fragment) MFNRKRRGDFDEDENYRDFRPRMPKRQRIPPVVQLCKEMMPDIRTIGESVKAFEDDIKFLSEAIMNEYGHEDYFNNALLSTLNAVVVEQPQKQAAIALLTMVVNSKNNVAGKSIINYFFEELQKWCKQTYNDEFKSTSNETGPWNKIKLILRFLSILSPMFLVDELINIYKSLFELSIELNNLDPGNRVPLSEAIYTNTLLNIPYLFFFNRNNDGLRTKVEELLAYVEQNYLVKTTDINLLREYNGEPPYEMVELVRVVLPNVKKALINNLEQLNELFPDWNHLLTPQTGDEGFNDALTLPSVDDLKSFVRLNKNFGSVDSMWKTPRYAFHVYLPNSAGNFETVVPISTYAGQLFNDIIIDLVESLEFNRKEVARQVITLDLFFKAGIFTEPGESIAQLIATYEENPLAPTFKIEDLAIETILGLIFKLPSVSQPFAYFYTLLVDICQNSPKAIAPVFGRAFRFFYSHLDSLDFELKLRYLDWFSIQMSNFNFSWKWNEWEDDSIKFGKYFYNPKVNFAKNLIQKELRLTSNFSEVEDSLPQEFTKYLDTSYIPRD | RNA-dependent ATPase activity, % Ded1 [3]: 220% |
| 105% | eIF4E with an amino-terminal His6 tag (natural protein, S. cerevisiae, UniProt P07260 1-213, looked up, eIF4E (CDC33) of S. cerevisiae cloned into the NdeI-BamHI sites of pET15b; also called CDC33; source: E. coli (pET15b), purified on nickel-agarose) MSVEEVSKKFEENVSVDDTTATPKTVLSDSAHFDVKHPLNTKWTLWYTKPAVDKSESWSDLLRPVTSFQTVEEFWAIIQNIPEPHELPLKSDYHVFRNDVRPEWEDEANAKGGKWSFQLRGKGADIDELWLRTLLAVIGETIDEDDSQINGVVLSIRKGGNKFALWTKSEDKEPLLRIGGKFKQVLKLTDDGHLEFFPHSSANGRHPQPSITL | binding result [4]: binds |
| – | Cbp80 (557–861) (domain or fragment) QLINYYQSLFTGYTVEEDSVRKNDLYFRQEGVPMENTVRKILDYTHKANNSREVTELESILGELKNEYGSIISDFNRFVIILLVQAVTDSGSRSLSHANKYINDLKEDLKTIFAKIELDIETKEYIIIEAVLTFWNANPQTGFLVADAFKYAGLLTSRTIFTFIFNETGLKNNGLIEATAIEAVFRNLSQQISEENESGNNFEFVFERLCTIANSTIDLLDVNADEDIEIPKVNGEMDIDDIEDDKLDLKWKYFTVIGFIKSILRRYSHEYRELADKFIANIDNAIPHESTRRTISNWIQETKEV | RNA-dependent ATPase activity, % Ded1 [3]: 144% |
| 206% | GST-eIF4G1 fragment 1-596 (domain or fragment, S. cerevisiae, UniProt P39935 1-596, looked up) MTDETAHPTQSASKQESAALKQTGDDQQESQQQRGYTNYNNGSNYTQKKPYNSNRPHQQRGGKFGPNRYNNRGNYNGGGSFRGGHMGANSSNVPWTGYYNNYPVYYQPQQMAAAGSAPANPIPVEEKSPVPTKIEITTKSGEHLDLKEQHKAKLQSQERSTVSPQPESKLKETSDSTSTSTPTPTPSTNDSKASSEENISEAEKTRRNFIEQVKLRKAALEKKRKEQLEGSSGNNNIPMKTTPENVEEKGSDKPEVTEKTKPAEEKSAEPEVKQETPAEEGEQGEKGQIKEESTPKVLTFAERLKLKKQQKEREEKTEGKENKEVPVQEETKSAIESAPVPPSEQVKEETEVAETEQSNIDESATTPAIPTKSDEAEAEVEAEAGDAGTKIGLEAEIETTTDETDDGTNTVSHILNVLKDATPIEDVFSFNYPEGIEGPDIKYKKEHVKYTYGPTFLLQFKDKLNVKADAEWVQSTASKIVIPPGMGRGNRSRDSGRFGNNSSRGHDFRNTSVRNMDDRANSRTSSKRRSKRMNDDRRSNRSYTSRRDRERGSYRNEEKREDDKPKEEVAPLVPSANRWVPKFKSKKTEKKLAPDG | – |
| 119% | Pab1 with an amino-terminal His6 tag (natural protein, S. cerevisiae, UniProt P04147 1-577, looked up) MADITDKTAEQLENLNIQDDQKQAATGSESQSVENSSASLYVGDLEPSVSEAHLYDIFSPIGSVSSIRVCRDAITKTSLGYAYVNFNDHEAGRKAIEQLNYTPIKGRLCRIMWSQRDPSLRKKGSGNIFIKNLHPDIDNKALYDTFSVFGDILSSKIATDENGKSKGFGFVHFEEEGAAKEAIDALNGMLLNGQEIYVAPHLSRKERDSQLEETKAHYTNLYVKNINSETTDEQFQELFAKFGPIVSASLEKDADGKLKGFGFVNYEKHEDAVKAVEALNDSELNGEKLYVGRAQKKNERMHVLKKQYEAYRLEKMAKYQGVNLFVKNLDDSVDDEKLEEEFAPYGTITSAKVMRTENGKSKGFGFVCFSTPEEATKAITEKNQQIVAGKPLYVAIAQRKDVRRSQLAQQIQARNQMRYQQATAAAAAAAAGMPGQFMPPMFYGVMPPRGVPFNGPNPQQMNPMGGMPKNGMPPQFRNGPVYGVPPQGGFPRNANDNNQFYQQKQRQALGEQLYKKVSAKTSNEEAAGKITGMILDLPPQEVFPLLESDELFEQHYKEASAAYESFKKEQEQQTEQA | – |
| 150% | GST-NAB2-HIS6 (natural protein, S. cerevisiae, UniProt P32505 1-525, looked up) MSQEQYTENLKVIVAEKLAGIPNFNEDIKYVAEYIVLLIVNGGTVESVVDELASLFDSVSRDTLANVVQTAFFALEALQQGESAENIVSKIRMMNAQSLGQSDIAQQQQQQQQQQQPDIAQQQPQQQPQQQPQQQPQQQPQQQPQQQPQQQPQQQPQLQPLQPQLGTQNAMQTDAPATPSPISAFSGVVNAAAPPQFAPVDNSQRFTQRGGGAVGKNRRGGRGGNRGGRNNNSTRFNPLAKALGMAGESNMNFTPTKKEGRCRLFPHCPLGRSCPHAHPTKVCNEYPNCPKPPGTCEFLHPNEDEELMKEMERTREEFQKRKADLLAAKRKPVQTGIVLCKFGALCSNPSCPFGHPTPANEDAKVIDLMWCDKNLTCDNPECRKAHSSLSKIKEVKPISQKKAAPPPVEKSLEQCKFGTHCTNKRCKYRHARSHIMCREGANCTRIDCLFGHPINEDCRFGVNCKNIYCLFRHPPGRVLPEKKGAAPNSNVPTNERPFALPENAIIENAPPQTSFTHQEQDTEMN | – |
